# In patent publication US20120178908A1 (Novo Nordisk, published 2012):
# B1: Fab 0012-LC-L0-hTF.1-219; VH-CH1-HPC4 (other)
# light: DVVMTQTPLSLPVSLGDQASISCRSSQSLVHRNGNTYFHWCLQKPGQSPKLLIYKVSNRFSGVPDRFSGSGSGTDFTLKISRVEAEDLGVYFCSQSTHVPYTFGGGTKLEIKRTVAAPSVFIFPPSDEQLKSGTASVVCLLNNFYPREAKVQWKVDNALQSGNSQESVTEQDSKDSTYSLSSTLTLSKADYEKHKVYACEVTHQGLSSPVTKSFNRGECSGTTNTVAAYNLTWKSTNFKTILEWEPKPVNQVYTVQISTKSGDWKSKCFYTTDTECDLTDEIVKDVKQTYLARVFSYPAGNVESTGSAGEPLYENSPEFTPYLETNLGQPTIQSFEQVGTKVNVTVEDERTLVRRNNTFLSLRDVFGKDLIYTLYYWKSSSSGKKTAKTNTNEFLIDVDKGENYCFSVQAVIPSRTVNRKSTDSPVECMGQEKGEFRE
# heavy: EVKLLESGGGLVQPGGSLKLSCAASGFDFSRYWMTWVRQAPGKGLEWIGEINPDSSTINYTPSLKDKFIISRDNAKNTLYLQMSEVRSEDTALYYCASGVFTSWGQGTLVTVSAASTKGPSVFPLAPCSRSTSESTAALGCLVKDYFPEPVTVSWNSGALTSGVHTFPAVLQSSGLYSLSSVVTVPSSSLGTKTYTCNVDHKPSNTKVDKRVESKEDQVDPRLIDGK
# B2: Fab 0051-LC-L4a-TF;VH-CH1-HPC4 (other)
# light chain-linker-TF: SIVMTQTPKFLLVSAGDRVTITCKASQSVSNDVAWYQQKPGQSPKLLINYASSRYTGIPDRFTGSGYGTDFTFTISTVQAEDLAVYFCQQDYSSPYTFGGGTKLEIERTVAAPSVFIFPPSDEQLKSGTASVVCLLNNFYPREAKVQWKVDNALQSGNSQESVTEQDSKDSTYSLSSTLTLSKADYEKHKVYACEVTHQGLSSPVTKSFNRGECGSGGGGSGGGGSGGGGSSGTTNTVAAYNLTWKSTNFKTILEWEPKPVNQVYTVQISTKSGDWKSKCFYTTDTECDLTDEIVKDVKQTYLARVFSYPAGNVESTGSAGEPLYENSPEFTPYLETNLGQPTIQSFEQVGTKVNVTVEDERTLVRRNNTFLSLRDVFGKDLIYTLYYWKSSSSGKKTAKTNTNEFLIDVDKGENYCFSVQAVIPSRTVNRKSTDSPVECMGQEKGEFRE
# VH-CH1-HPC4: QVQLEQSGAELVRPGVSVKISCKGSGYTFTDYSMHWVKQSHAKSLEWIGVISTYYGDVRYNQKFKGKATMTVDKSSSTAYMALARLTSEDSAIYYCARAPMITTGAWFAYWGQGTLVTVSAASTKGPSVFPLAPCSRSTSESTAALGCLVKDYFPEPVTVSWNSGALTSGVHTFPAVLQSSGLYSLSSVVTVPSSSLGTKTYTCNVDHKPSNTKVDKRVESKEDQVDPRLIDGK
# B3: Fab 0023-LC-L3-TF;VH-CH1-HPC4 (other)
# light chain-linker-TF: DIVVSQSPSSLAVSAGEKVTMSCKSSQSLLNSRTRKNYLAWYQQKPGQSPKLLIYWASTRESGVPDRFTGSGSGTDFTLTISSVQAEDLAVYYCKQSYNLLTFGAGTKLELKRTVAAPSVFIFPPSDEQLKSGTASVVCLLNNFYPREAKVQWKVDNALQSGNSQESVTEQDSKDSTYSLSSTLTLSKADYEKHKVYACEVTHQGLSSPVTKSFNRGECGSGGGGSGGGGSSGTTNTVAAYNLTWKSTNFKTILEWEPKPVNQVYTVQISTKSGDWKSKCFYTTDTECDLTDEIVKDVKQTYLARVFSYPAGNVESTGSAGEPLYENSPEFTPYLETNLGQPTIQSFEQVGTKVNVTVEDERTLVRRNNTFLSLRDVFGKDLIYTLYYWKSSSSGKKTAKTNTNEFLIDVDKGENYCFSVQAVIPSRTVNRKSTDSPVECMGQEKGEFRE
# VH-CH1-HPC4: EVRLVESGGGLVQPGGSLKLSCATSGFTFSDYFMYWIRQTPEKRLEWVAYISNGGDSSSYPDTVKGRFTISRDNAKNTLYLQMSRLKSEDTAMYYCATNKNWDDYYDMDYWGQGTSVTVSSASTKGPSVFPLAPCSRSTSESTAALGCLVKDYFPEPVTVSWNSGALTSGVHTFPAVLQSSGLYSLSSVVTVPSSSLGTKTYTCNVDHKPSNTKVDKRVESKEDQVDPRLIDGK
# B4: Fab 0023-LC-L4a-TF;VH-CH1-HPC4 (other)
# light chain-linker-TF: DIVVSQSPSSLAVSAGEKVTMSCKSSQSLLNSRTRKNYLAWYQQKPGQSPKLLIYWASTRESGVPDRFTGSGSGTDFTLTISSVQAEDLAVYYCKQSYNLLTFGAGTKLELKRTVAAPSVFIFPPSDEQLKSGTASVVCLLNNFYPREAKVQWKVDNALQSGNSQESVTEQDSKDSTYSLSSTLTLSKADYEKHKVYACEVTHQGLSSPVTKSFNRGECGSGGGGSGGGGSGGGGSSGTTNTVAAYNLTWKSTNFKTILEWEPKPVNQVYTVQISTKSGDWKSKCFYTTDTECDLTDEIVKDVKQTYLARVFSYPAGNVESTGSAGEPLYENSPEFTPYLETNLGQPTIQSFEQVGTKVNVTVEDERTLVRRNNTFLSLRDVFGKDLIYTLYYWKSSSSGKKTAKTNTNEFLIDVDKGENYCFSVQAVIPSRTVNRKSTDSPVECMGQEKGEFRE
# VH-CH1-HPC4: EVRLVESGGGLVQPGGSLKLSCATSGFTFSDYFMYWIRQTPEKRLEWVAYISNGGDSSSYPDTVKGRFTISRDNAKNTLYLQMSRLKSEDTAMYYCATNKNWDDYYDMDYWGQGTSVTVSSASTKGPSVFPLAPCSRSTSESTAALGCLVKDYFPEPVTVSWNSGALTSGVHTFPAVLQSSGLYSLSSVVTVPSSSLGTKTYTCNVDHKPSNTKVDKRVESKEDQVDPRLIDGK
# B5: Fab 0012-VH-CH1-L4a-hTF.1-219; LC-HPC4 (other)
# heavy: EVKLLESGGGLVQPGGSLKLSCAASGFDFSRYWMTWVRQAPGKGLEWIGEINPDSSTINYTPSLKDKFIISRDNAKNTLYLQMSEVRSEDTALYYCASGVFTSWGQGTLVTVSAASTKGPSVFPLAPCSRSTSESTAALGCLVKDYFPEPVTVSWNSGALTSGVHTFPAVLQSSGLYSLSSVVTVPSSSLGTKTYTCNVDHKPSNTKVDKRVESKGSGGGGSGGGGSGGGGSSGTTNTVAAYNLTWKSTNFKTILEWEPKPVNQVYTVQISTKSGDWKSKCFYTTDTECDLTDEIVKDVKQTYLARVFSYPAGNVESTGSAGEPLYENSPEFTPYLETNLGQPTIQSFEQVGTKVNVTVEDERTLVRRNNTFLSLRDVFGKDLIYTLYYWKSSSSGKKTAKTNTNEFLIDVDKGENYCFSVQAVIPSRTVNRKSTDSPVECMGQEKGEFRE
# light: DVVMTQTPLSLPVSLGDQASISCRSSQSLVHRNGNTYFHWCLQKPGQSPKLLIYKVSNRFSGVPDRFSGSGSGTDFTLKISRVEAEDLGVYFCSQSTHVPYTFGGGTKLEIKRTVAAPSVFIFPPSDEQLKSGTASVVCLLNNFYPREAKVQWKVDNALQSGNSQESVTEQDSKDSTYSLSSTLTLSKADYEKHKVYACEVTHQGLSSPVTKSFNRGECEDQVDPRLIDGK
# B6: Fab 0061-VH-CH1-L10-TF;LC-HPC4 (other)
# VH-CH1-linker-TF: EVKLLESGGGLVQPGGSLKLSCAASGFDFSRYWMTWVRQAPGKGLEWIGEINPDSSTINYNPSLKDKFIISRDNAKNTLYLQMSEVRSEDTALYYCASGVFTSWGQGTLVTVSAASTKGPSVFPLAPCSRSTSESTAALGCLVKDYFPEPVTVSWNSGALTSGVHTFPAVLQSSGLYSLSSVVTVPSSSLGTKTYTCNVDHKPSNTKVDKRVESKYGPPSPSSPAPEFLGGSGTTNTVAAYNLTWKSTNFKTILEWEPKPVNQVYTVQISTKSGDWKSKCFYTTDTECDLTDEIVKDVKQTYLARVFSYPAGNVESTGSAGEPLYENSPEFTPYLETNLGQPTIQSFEQVGTKVNVTVEDERTLVRRNNTFLSLRDVFGKDLIYTLYYWKSSSSGKKTAKTNTNEFLIDVDKGENYCFSVQAVIPSRTVNRKSTDSPVECMGQEKGEFRE
# light chain-HPC4: DVVMTQTPLSLPVSLGDQASISCRSSQSLVHRNGNTYFHWALQKPGQSPKLLIYKVSNRFSGVPDRFSGSGSGTDFTLKISRVEAEDLGVYFCSQSTHVPYTFGGGTKLEIKRTVAAPSVFIFPPSDEQLKSGTASVVCLLNNFYPREAKVQWKVDNALQSGNSQESVTEQDSKDSTYSLSSTLTLSKADYEKHKVYACEVTHQGLSSPVTKSFNRGECEDQVDPRLIDGK
# B7: Fab 0082-VH-CH1-L10-TF;LC-HPC4 (other)
# VH-CH1-linker-TF: EVKLLESGGGLVQPGGSLKLSCAASGFDFSRYWMTWVRQAPGKGLEWIGEINPDSSTINYAPSLKDKFIISRDNAKNTLYLQMSEVRSEDTALYYCASGVFTSWGQGTLVTVSAASTKGPSVFPLAPCSRSTSESTAALGCLVKDYFPEPVTVSWNSGALTSGVHTFPAVLQSSGLYSLSSVVTVPSSSLGTKTYTCNVDHKPSNTKVDKRVESKYGPPSPSSPAPEFLGGSGTTNTVAAYNLTWKSTNFKTILEWEPKPVNQVYTVQISTKSGDWKSKCFYTTDTECDLTDEIVKDVKQTYLARVFSYPAGNVESTGSAGEPLYENSPEFTPYLETNLGQPTIQSFEQVGTKVNVTVEDERTLVRRNNTFLSLRDVFGKDLIYTLYYWKSSSSGKKTAKTNTNEFLIDVDKGENYCFSVQAVIPSRTVNRKSTDSPVECMGQEKGEFRE
# light chain-HPC4: DVVMTQTPLSLPVSLGDQASISCRSSQSLVHRNGNTYFHWALQKPGQSPKLLIYKVSNRFSGVPDRFSGSGSGTDFTLKISRVEAEDLGVYFCSQSTHVPYTFGGGTKLEIKRTVAAPSVFIFPPSDEQLKSGTASVVCLLNNFYPREAKVQWKVDNALQSGNSQESVTEQDSKDSTYSLSSTLTLSKADYEKHKVYACEVTHQGLSSPVTKSFNRGECEDQVDPRLIDGK
# Key:
# [1] = molecular target: T1, TLT-1 18-188 relipidated in 20:80 PS:PC vesicles (human, UniProt Q86YW5 18-188); assay: cell-based or functional assay
# T1 sequence: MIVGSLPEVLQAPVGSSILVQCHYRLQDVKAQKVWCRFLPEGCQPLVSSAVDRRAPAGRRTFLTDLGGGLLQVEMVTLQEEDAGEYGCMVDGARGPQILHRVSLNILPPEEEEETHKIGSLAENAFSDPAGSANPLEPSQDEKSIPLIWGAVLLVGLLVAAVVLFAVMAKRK
# [2] = molecular target: T2, TLT-1 receptor on the surface of activated human platelets (human, UniProt Q86YW5 16-311); assay: cell-based or functional assay
# T2 sequence: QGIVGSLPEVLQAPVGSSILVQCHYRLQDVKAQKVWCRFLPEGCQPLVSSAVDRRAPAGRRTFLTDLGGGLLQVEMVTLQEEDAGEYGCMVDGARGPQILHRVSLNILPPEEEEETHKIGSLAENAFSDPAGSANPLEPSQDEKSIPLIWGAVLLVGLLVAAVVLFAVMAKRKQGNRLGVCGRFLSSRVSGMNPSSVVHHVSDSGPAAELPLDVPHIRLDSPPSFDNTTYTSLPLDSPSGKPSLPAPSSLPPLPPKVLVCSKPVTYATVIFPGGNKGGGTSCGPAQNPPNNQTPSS
Binder,FVII-mediated FXa generation % Activity lipidated TLT-1 [1],FVIIa-mediated FXa generation % Activity lipidated TLT-1 [1],FVIIa-mediated FXa generation % Activity activated plts (n 1) [2],FVII-mediated FXa generation % Activity activated plts (n 1) [2]
B1,90%,98%,132%,–
B2,22%,43%,–,–
B3,26%,42%,43%,20%
B4,24%,40%,21%,21%
B5,60%,72%,–,–
B6,101%,101%,62%,39%
B7,103%,103%,57%,40%
